Source: patent US20250145711A1 (Janssen / Centocor, published 2025)

Target: T1, TRCW5 antigen (CD3δε-Fc-Avi) (biotinylated (site not stated))
T1 construct: also called recombinant CD3
Test: ELISA after heat

T1 sequence (chain, as listed by the source mutant limits assumed): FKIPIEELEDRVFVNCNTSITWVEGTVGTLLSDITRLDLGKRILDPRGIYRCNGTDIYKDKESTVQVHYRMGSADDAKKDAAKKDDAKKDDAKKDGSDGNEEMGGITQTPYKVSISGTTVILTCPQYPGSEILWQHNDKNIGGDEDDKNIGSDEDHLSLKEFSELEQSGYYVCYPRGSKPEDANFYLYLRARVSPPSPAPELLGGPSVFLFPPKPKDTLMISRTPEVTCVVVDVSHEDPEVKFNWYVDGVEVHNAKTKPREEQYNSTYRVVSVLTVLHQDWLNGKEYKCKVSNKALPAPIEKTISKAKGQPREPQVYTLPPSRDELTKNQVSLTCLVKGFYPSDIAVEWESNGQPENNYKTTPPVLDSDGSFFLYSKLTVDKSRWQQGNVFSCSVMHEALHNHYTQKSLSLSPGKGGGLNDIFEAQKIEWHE

Binder	% Retained 55° C.	% Retained 60° C.	% Retained 65° C.
CD3B2026 (scFv) scFv: QVQLVQSGAEVKKPGSSVKVSCKASGYTFTRSTMHWVKQAPGQGLEWIGYINPSSAYTNYNQKFQGRVTLTADKSTSTAYMELSSLRSEDTAVYYCASPQVHYDYNGFPYWGQGTLVTVSSGGSEGKSSGSGSESKSTGGSEIVLTQSPATLSASPGERVTLSCSASSSVSYMNWYQQKPGTAPRRWIYDSSKLASGVPARFSGSGSGRDYTLTISSLEPEDFAVYYCQQWSRNPPTFGGGTKVEIK	106%	98%	29%
CD3B2027 (scFv) scFv: QVQLVQSGAEVKKPGSSVKVSCKASGYTFTRSTMHWVKQAPGQGLEWIGYINPSSAYTNYNQKFQGRVTLTADKSTSTAYMELSSLRSEDTAVYYCASPQVHYDYNGFPYWGQGTLVTVSSGGSEGKSSGSGSESKSTGGSEIVLTQSPATLSASPGERVTLSCSASSSVSYMNWYQQKPGTSPRRLIYDSSKLASGVPARFSGSGSGRDYTLTISSLEPEDFAVYYCQQWSRNPPTFGGGTKVEIK	104%	93%	9%
CD3B2028 (scFv) scFv: QVQLVQSGAEVKKPGSSVKVSCKASGYTFTRSTMHWVKQAPGQGLEWIGYINPSSAYTNYNQKFQGRVTLTADKSTSTAYMELSSLRSEDTAVYYCASPQVHYDYNGFPYWGQGTLVTVSSGGSEGKSSGSGSESKSTGGSEIVLTQSPATLSASPGERVTLSCSASSSVSYMNWYQQKPGTAPRRLIYDSSKLASGVPARFSGSGSGRDYTLTISSLEPEDFAVYYCQQWSRNPPTFGGGTKVEIK	104%	92%	15%
CD3B2032 (scFv) scFv: QVQLVQSGAEVKKPGSSVKVSCKASGYTFTRSTMHWVKQAPGQGLEWMGYINPSSAYTNYNQKFQGRVTLTADKSTSTAYMELSSLRSEDTAVYYCASPQVHYDYNGFPYWGQGTLVTVSSGGSEGKSSGSGSESKSTGGSEIVLTQSPATLSASPGERVTLSCSASSSVSYMNWYQQKPGTSPRRLIYDSSKLASGVPARFSGSGSGRDYTLTISSLEPEDFAVYYCQQWSRNPPTFGGGTKVEIK	106%	88%	20%
CD3B2036 (scFv) scFv: QVQLVQSGAEVKKPGSSVKVSCKASGYTFTRSTMHWVKQAPGQGLEWMGYINPSSAYTNYAQKFQGRVTLTADKSTSTAYMELSSLRSEDTAVYYCASPQVHYDYNGFPYWGQGTLVTVSSGGSEGKSSGSGSESKSTGGSEIVLTQSPATLSASPGERVTLSCSASSSVSYMNWYQQKPGTAPRRWIYDSSKLASGVPARFSGSGSGRDYTLTISSLEPEDFAVYYCQQWSRNPPTFGGGTKVEIK	108%	105%	35%
CD3B2040 (scFv) scFv: QVQLVQSGAEVKKPGSSVKVSCKASGYTFTRSTMHWVKQAPGQGLEWMGYINPSSAYTNYAQKFQGRVTLTADKSTSTAYMELSSLRSEDTAVYYCASPQVHYDYNGFPYWGQGTLVTVSSGGSEGKSSGSGSESKSTGGSEIVLTQSPATLSASPGERVTLSCSASSSVSYMNWYQQKPGQAPRRWIYDSSKLASGVPARFSGSGSGRDYTLTISSLEPEDFAVYYCQQWSRNPPTFGGGTKVEIK	107%	106%	52%
CD3B2046 (scFv) scFv: QVQLVQSGAEVKKPGSSVKVSCKASGYTFTRSTMHWVKQAPGQGLEWIGYINPSSAYTNYNQKFQGRVTLTADKSTSTAYMELSSLRSEDTAVYYCASPQVHYDYNGFPYWGQGTLVTVSSGGSEGKSSGSGSESKSTGGSEIVLTQSPATLSASPGERVTLSCSASSSVSYMNWYQQKPGTSPRRWIYDSSKLASGVPARFSGSGSGRDYTLTISSLEPEDFAVYYCQQWSRNPPTFGGGTKVEIK	111%	113%	30%
CD3B2047 (scFv) scFv: QVQLVQSGAEVKKPGSSVKVSCKASGYTFTRSTMHWVKQAPGQGLEWIGYINPSSAYTNYNQKFQGRVTLTADKSTSTAYMELSSLRSEDTAVYYCASPQVHYDYNGFPYWGQGTLVTVSSGGSEGKSSGSGSESKSTGGSEIVLTQSPATLSASPGERVTLSCSASSSVSYMNWYQQKPGQSPRRLIYDSSKLASGVPARFSGSGSGRDYTLTISSLEPEDFAVYYCQQWSRNPPTFGGGTKVEIK	106%	98%	15%
CD3B2048 (scFv) scFv: QVQLVQSGAEVKKPGSSVKVSCKASGYTFTRSTMHWVKQAPGQGLEWIGYINPSSAYTNYNQKFQGRVTLTADKSTSTAYMELSSLRSEDTAVYYCASPQVHYDYNGFPYWGQGTLVTVSSGGSEGKSSGSGSESKSTGGSEIVLTQSPATLSASPGERVTLSCSASSSVSYMNWYQQKPGQAPRRLIYDSSKLASGVPARFSGSGSGRDYTLTISSLEPEDFAVYYCQQWSRNPPTFGGGTKVEIK	105%	95%	22%
CD3B2049 (scFv) scFv: QVQLVQSGAEVKKPGSSVKVSCKASGYTFTRSTMHWVKQAPGQGLEWMGYINPSSAYTNYNQKFQGRVTLTADKSTSTAYMELSSLRSEDTAVYYCASPQVHYDYNGFPYWGQGTLVTVSSGGSEGKSSGSGSESKSTGGSEIVLTQSPATLSASPGERVTLSCSASSSVSYMNWYQQKPGTSPRRWIYDSSKLASGVPARFSGSGSGRDYTLTISSLEPEDFAVYYCQQWSRNPPTFGGGTKVEIK	108%	105%	29%
CD3B2050 (scFv) scFv: QVQLVQSGAEVKKPGSSVKVSCKASGYTFTRSTMHWVKQAPGQGLEWMGYINPSSAYTNYNQKFQGRVTLTADKSTSTAYMELSSLRSEDTAVYYCASPQVHYDYNGFPYWGQGTLVTVSSGGSEGKSSGSGSESKSTGGSEIVLTQSPATLSASPGERVTLSCSASSSVSYMNWYQQKPGQSPRRLIYDSSKLASGVPARFSGSGSGRDYTLTISSLEPEDFAVYYCQQWSRNPPTFGGGTKVEIK	108%	102%	41%
CD3B2052 (scFv) scFv: QVQLVQSGAEVKKPGSSVKVSCKASGYTFTRSTMHWVKQAPGQGLEWMGYINPSSAYTNYAQKFQGRVTLTADKSTSTAYMELSSLRSEDTAVYYCASPQVHYDYNGFPYWGQGTLVTVSSGGSEGKSSGSGSESKSTGGSEIVLTQSPATLSASPGERVTLSCSASSSVSYMNWYQQKPGTSPRRWIYDSSKLASGVPARFSGSGSGRDYTLTISSLEPEDFAVYYCQQWSRNPPTFGGGTKVEIK	112%	111%	25%
CD3B2053 (scFv) scFv: QVQLVQSGAEVKKPGSSVKVSCKASGYTFTRSTMHWVKQAPGQGLEWMGYINPSSAYTNYAQKFQGRVTLTADKSTSTAYMELSSLRSEDTAVYYCASPQVHYDYNGFPYWGQGTLVTVSSGGSEGKSSGSGSESKSTGGSEIVLTQSPATLSASPGERVTLSCSASSSVSYMNWYQQKPGQSPRRLIYDSSKLASGVPARFSGSGSGRDYTLTISSLEPEDFAVYYCQQWSRNPPTFGGGTKVEIK	115%	112%	30%
CD3B2054 (scFv) scFv: QVQLVQSGAEVKKPGSSVKVSCKASGYTFTRSTMHWVKQAPGQGLEWMGYINPSSAYTNYAQKFQGRVTLTADKSTSTAYMELSSLRSEDTAVYYCASPQVHYDYNGFPYWGQGTLVTVSSGGSEGKSSGSGSESKSTGGSEIVLTQSPATLSASPGERVTLSCSASSSVSYMNWYQQKPGQAPRRLIYDSSKLASGVPARFSGSGSGRDYTLTISSLEPEDFAVYYCQQWSRNPPTFGGGTKVEIK	106%	100%	23%
CD3B2055 (scFv) scFv: QVQLVQSGAEVKKPGSSVKVSCKASGYTFTRSTMHWVRQAPGQGLEWIGYINPSSAYTNYNQKFQGRVTLTADKSTSTAYMELSSLRSEDTAVYYCASPQVHYDYNGFPYWGQGTLVTVSSGGSEGKSSGSGSESKSTGGSEIVLTQSPATLSASPGERVTLSCSASSSVSYMNWYQQKPGTSPRRWIYDSSKLASGVPARFSGSGSGRDYTLTISSLEPEDFAVYYCQQWSRNPPTFGGGTKVEIK	102%	96%	11%
CD3B2056 (scFv) scFv: QVQLVQSGAEVKKPGSSVKVSCKASGYTFTRSTMHWVRQAPGQGLEWIGYINPSSAYTNYNQKFQGRVTLTADKSTSTAYMELSSLRSEDTAVYYCASPQVHYDYNGFPYWGQGTLVTVSSGGSEGKSSGSGSESKSTGGSEIVLTQSPATLSASPGERVTLSCSASSSVSYMNWYQQKPGQSPRRLIYDSSKLASGVPARFSGSGSGRDYTLTISSLEPEDFAVYYCQQWSRNPPTFGGGTKVEIK	101%	80%	9%
CD3B2057 (scFv) scFv: QVQLVQSGAEVKKPGSSVKVSCKASGYTFTRSTMHWVRQAPGQGLEWIGYINPSSAYTNYNQKFQGRVTLTADKSTSTAYMELSSLRSEDTAVYYCASPQVHYDYNGFPYWGQGTLVTVSSGGSEGKSSGSGSESKSTGGSEIVLTQSPATLSASPGERVTLSCSASSSVSYMNWYQQKPGQAPRRLIYDSSKLASGVPARFSGSGSGRDYTLTISSLEPEDFAVYYCQQWSRNPPTFGGGTKVEIK	92%	66%	3%
CD3B2059 (scFv) scFv: QVQLVQSGAEVKKPGSSVKVSCKASGYTFTRSTMHWVKQAPGQGLEWIGYINPSSAYTNYAQKFQGRVTLTADKSTSTAYMELSSLRSEDTAVYYCASPQVHYDYNGFPYWGQGTLVTVSSGGSEGKSSGSGSESKSTGGSEIVLTQSPATLSASPGERVTLSCSASSSVSYMNWYQQKPGQSPRRLIYDSSKLASGVPARFSGSGSGRDYTLTISSLEPEDFAVYYCQQWSRNPPTFGGGTKVEIK	112%	98%	13%
